Laboratory results as given in patent US20090018093.
pIC50, pKd: −log10 of the molar value. Like-named read-outs stand apart in the source and are kept apart here.

Key:
[1] = tested on: Immunoglobulin E (IgE) (Homo sapiens), P01854-1; assay: inhibition; conditions: FACS
[2] = tested on: Immunoglobulin E (IgE) (Homo sapiens), P01854-1; assay: filter

Chain of Immunoglobulin E (IgE) (Homo sapiens), P01854-1 (P01854 other isoform, or with tags, fused parts or gaps): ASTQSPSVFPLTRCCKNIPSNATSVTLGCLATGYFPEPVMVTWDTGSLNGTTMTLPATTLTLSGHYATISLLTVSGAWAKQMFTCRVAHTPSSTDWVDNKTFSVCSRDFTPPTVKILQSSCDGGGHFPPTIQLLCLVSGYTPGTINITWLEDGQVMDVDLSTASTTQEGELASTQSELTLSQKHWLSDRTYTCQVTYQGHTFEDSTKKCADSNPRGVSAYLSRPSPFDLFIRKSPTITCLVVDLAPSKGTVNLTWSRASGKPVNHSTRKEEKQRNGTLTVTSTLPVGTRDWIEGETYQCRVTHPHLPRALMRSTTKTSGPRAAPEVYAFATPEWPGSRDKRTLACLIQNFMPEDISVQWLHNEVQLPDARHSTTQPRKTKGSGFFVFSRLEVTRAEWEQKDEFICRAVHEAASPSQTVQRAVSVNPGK

## AGCCUGGGGACCCAUGGGGGGCU [ARC1335]
[1]; 2'-OMe A1,G2,G7,A10,A14,G17 and all C,U, rest 2'-deoxy, 3' idT [2'-OMe at 1,2,3,4,5,7,10,11,12,13,14,15,17,22,23, 2'-deoxy at 6,8,9,16,18,19,20,21, 3' idT left out], 2.5 nM IgE
  pIC50: 8.14
[2]; 2'-OMe C,U,A1,G2,G7,A10,A14,G17, deoxy G6,G8,G9,G16,G18-G21, 3' idT [2'-OMe: 1-5,7,10-15,17,22,23, deoxy: 6,8,9,16,18-21, 24 = 3' inverted dT], dPBS Ca/Mg + BSA, RT
  pKd: 9.52

## AGCCUGGGGACCCAUGGGGGGCU [ARC1337]
[1]; 2'-OMe/2'-deoxy mix, PS, 3' idT [PS after 1,9,15,16,18,20, 2'-OMe/2'-deoxy mix, 3' idT left out], 2.5 nM IgE
  pIC50: 8.33
[2]; as printed dA-s-mGmCmCmUdGmGdGdG-s-mAmCmCmCmAmU-s-dG-s-mGdGdGdG-s-dGmCmU-3T [deoxy: 1,6,8,9,16,18-21, 2'-OMe: 2-5,7,10-15,17,22,23, phosphorothioate after 1,9,15,16,20 (also after 18 per given string), 24 = 3' inverted dT], dPBS Ca/Mg + BSA, RT
  pKd: 9.70

## AGCCUGGGGACCCAUGGGGGGCU [ARC1382]
[1]; 2'-OMe/2'-deoxy mix, PS linkages as in Table 17, 3' idT [phosphorothioate linkages (internal N, left out) between 8-9, 18-19, 20-21, 2'-OMe/2'-deoxy mix (positions not given), 3' inverted dT at 24], 2.5 nM IgE
  pIC50: 8.16
[2]; 2'-OMe/2'-deoxy mix, PS linkages as in Table 17, 3' idT [phosphorothioate linkages (internal N, left out) between 8-9, 18-19, 20-21, 2'-OMe/2'-deoxy mix (positions not given), 3' inverted dT at 24], DPBS Mg/Ca, 0.1 mg/mL BSA, RT
  pKd: 8.96

## AGCCUGGGGACCCAUGGGGGGCU [ARC1383]
[1]; 2'-OMe/2'-deoxy mix, PS linkages as in Table 17, 3' idT [phosphorothioate linkages (internal N, left out) between 8-9, 15-16, 18-19, 20-21, 2'-OMe/2'-deoxy mix (positions not given), 3' inverted dT at 24], 2.5 nM IgE
  pIC50: 8.12
[2]; 2'-OMe/2'-deoxy mix, PS linkages as in Table 17, 3' idT [phosphorothioate linkages (internal N, left out) between 8-9, 15-16, 18-19, 20-21, 2'-OMe/2'-deoxy mix (positions not given), 3' inverted dT at 24], DPBS Mg/Ca, 0.1 mg/mL BSA, RT
  pKd: 9.00

## AGCCUGGGGACCCAUGGGGGGCU [ARC1384]
[1]; 2'-OMe/2'-deoxy mix, PS, 3' idT [PS after 8,15,16,18,20, 2'-OMe/2'-deoxy mix, 3' idT left out], 2.5 nM IgE
  pIC50: 8.36
[2]; as printed mAmGmCmCmUdGmG-s-dGmAmCmCmCmAmU-s-dG-s-mGdG-s-dGdG-s-dGmCmU-3T [2'-OMe: 1-5,7,10-15,17,22,23, deoxy: 6,8,9,16,18-21, phosphorothioate after 8,15,16,18,20, 24 = 3' inverted dT], dPBS Ca/Mg + BSA, RT
  pKd: 9.30

## AGCCUGGGGACCCAUGGGGGGCU [ARC1572]
[1]; 2'-OMe/2'-deoxy mix, PS linkages as in Table 17, 3' idT [phosphorothioate linkages (internal N, left out) between 5-6, 7-8, 8-9, 15-16, 17-18, 18-19, 19-20, 20-21, 2'-OMe/2'-deoxy mix (positions not given), 3' inverted dT at 24], 2.5 nM IgE
  pIC50: 7.64
[2]; 2'-OMe/2'-deoxy mix, PS linkages as in Table 17, 3' idT [phosphorothioate linkages (internal N, left out) between 5-6, 7-8, 8-9, 15-16, 17-18, 18-19, 19-20, 20-21, 2'-OMe/2'-deoxy mix (positions not given), 3' inverted dT at 24], DPBS Mg/Ca, 0.1 mg/mL BSA, RT
  pKd: 9.52

## AGCCUGGGGACCCAUGGGGGGCU [ARC1573]
[1]; 2'-OMe/2'-deoxy mix, PS, 3' idT [PS after 5,6,7,8,15,16,17,18,19,20,21, 2'-OMe/2'-deoxy mix, 3' idT left out], 2.5 nM IgE
  pIC50: 7.16
[2]; as printed mAmGmCmCmU-s-dG-s-mG-s-dG-s-dGmAmCmCmCmAmU-s-dG-s-mG-s-dG-s-dG-s-dG-s-dG-s-mCmU-3T [2'-OMe: 1-5,7,10-15,17,22,23, deoxy: 6,8,9,16,18-21, phosphorothioate after 5-8,15-21, 24 = 3' inverted dT], dPBS Ca/Mg + BSA, RT
  pKd: 9.40

## AGCCUGGGGACCCAUGGGGGGCU [ARC1641]
[1]; 2'-OMe/2'-deoxy mix, dI20, PS, 3' idT [dI at 20 (written as parent G), PS after 8,15,16,18,20, 2'-OMe/2'-deoxy mix, 3' idT left out], 2.5 nM IgE
  pIC50: 8.74
[2]; mAmGmCmCmUdGmGdG-s-dGmAmCmCmCmAmU-s-dG-s-mGdG-s-dGdI-s-dGmCmU-3T [2'-OMe 1-5,7,10-15,17,22,23, dI20 (inosine, parent base G), phosphorothioate 8/9,15/16,16/17,18/19,20/21 (N linkage letters left out), 3' inverted dT24], dPBS Ca/Mg + BSA, RT
  pKd: 9.40

## AGCCUGGGGACCCAUGGGGGGCU [ARC1642]
[1]; 2'-OMe/2'-deoxy mix, dI16,dI20, PS, 3' idT [16=dI, 20=dI (G parent), 24=3' inverted dT, phosphorothioate linkage N's left out], 2.5 nM IgE
  pIC50: 8.74
[2]; 2'-OMe/2'-deoxy mix, dI16,dI20, PS, 3' idT [16=dI, 20=dI (G parent), 24=3' inverted dT, phosphorothioate linkage N's left out], DPBS Mg/Ca, 0.1 mg/mL BSA, RT
  pKd: 9.40

## AGCCUGGGGACCCAUGGGGGGCU [ARC1785]
[1]; ARC1666 chemistry, 5' and 3' 20 kDa PEG [dI at 16,18,20 (written as parent G), PS after 8,15,16,18,20, 2'-OMe/2'-deoxy mix (ARC1666 chemistry), 5' and 3' amine linker-20 kDa PEG left out], IgE-FceR1 on SX38 cells
  pIC50: 8.70

## AGCCUGGGGACCCAUGGGGGGCU [ARC1790]
[1]; ARC1666 chemistry, 5' and 3' 30 kDa PEG [dI at 16,18,20 (written as parent G), PS after 8,15,16,18,20, 2'-OMe/2'-deoxy mix (ARC1666 chemistry), 5' and 3' amine linker-30 kDa PEG left out], IgE-FceR1 on SX38 cells
  pIC50: 9.05

## GGGGCTACTTTATCCGTTCCTCCTAGTGGGTAGCCCC [ARC656]
[1]; 3' idT [3' idT left out], 2.5 nM IgE, histamine release IC50 16.9 nM
  pIC50: 7.67

## GGGGCTACTTTATCCGTTCCTCCTAGTGGGTAGCCCCT [ARC1302]
[2]; DNA with 2'-OMe G1-G4,A7,G30,A32,G33, 3' idT [2'-OMe G1-G4, A7, G30, A32, G33, 3' inverted dT at 38], dPBS Ca/Mg + BSA
  pKd: 7.72

## GGGGCTACTTTATCCGTTCCTCCTAGTGGGTAGCCCCT [ARC1304]
[2]; 2'-OMe at 1-4,34-37, 3' idT [2'-OMe: 1-4,34-37, 38 = 3' inverted dT], DPBS Mg/Ca, BSA
  pKd: 9.22

## GGGGCTACTTTATCCGTTCCTCCTAGTGGGTAGCCCCT [ARC1387]
[2]; 2'-OMe at 1-4,7,33-37, 3' idT [2'-OMe: 1-4,7,33-37, 38 = 3' inverted dT], DPBS Mg/Ca, BSA
  pKd: 8.62

## GGGGCTACTTTATCCGTTCCTCCTAGTGGGTAGCCCCT [ARC1410]
[2]; DNA with 2'-OMe G1-G4,A7,G33-C37, PS between T27 and G28, 3' idT [2'-OMe G1-G4, A7, G33-C37, PS 27/28 (printed N = PS linkage, left out), 3' inverted dT at 38], dPBS Ca/Mg + BSA
  pKd: 9.15

## GGGGCTACTTTATCCGTTCCTCCTAGTGGGUAGCCCCN [ARC1295]
[2]; 2'-OMe U at 31, 3' idT, DPBS Mg/Ca, BSA
  pKd: 8.52

## GGGGCTACTTTATCCGTTCCTCCUAGTGGGTAGCCCCN [ARC1288]
[2]; 2'-OMe U at 24, 3' idT, DPBS Mg/Ca, BSA
  pKd: 8.70

## GGGGCTACTTTATCCGTTCCUCCTAGTGGGTAGCCCCN [ARC1285]
[2]; 2'-OMe U at 21, 3' idT, DPBS Mg/Ca, BSA
  pKd: 9.10

## GGGGCTACTTTATCCGTUCCTCCTAGTGGGTAGCCCCN [ARC1282]
[2]; 2'-OMe U at 18, 3' idT, DPBS Mg/Ca, BSA
  pKd: 9.70

## GGGGCTACTTTATCCGUTCCTCCTAGTGGGTAGCCCCN [ARC1281]
[2]; 2'-OMe U at 17, 3' idT, DPBS Mg/Ca, BSA
  pKd: 10.00

## GGGGCTACTTTAUCCGTTCCTCCTAGTGGGTAGCCCC [ARC1277]
[2]; DNA with 2'-OMe U13, 3' idT [2'-OMe U13, 3' inverted dT38], dPBS Ca/Mg + BSA
  pKd: 8.22

## GGGGCTACTTUATCCGTTCCTCCTAGTGGGTAGCCCC [ARC1275]
[2]; 2'-OMe U at 11, 3' idT [11 (2'-OMe U), 38 (3' inverted dT)], DPBS Mg/Ca, BSA
  pKd: 9.52

## GGGGCTACTTUATCCGUUCCTCCTAGTGGGTAGCCCC [ARC1389]
[2]; 2'-OMe at 1-4,7,11,17,18,20,33-37, 3' idT [2'-OMe: 1-4,7,11,17,18,20,33-37, 38 = 3' inverted dT], DPBS Mg/Ca, BSA
  pKd: 8.27

## GGGGCTACTUTATCCGTTCCTCCTAGTGGGTAGCCCC [ARC1274]
[2]; 2'-OMe U at 10, 3' idT [10 (2'-OMe U), 38 (3' inverted dT)], DPBS Mg/Ca, BSA
  pKd: 8.70

## GGGGCTACUTTATCCGTTCCTCCTAGTGGGTAGCCCC [ARC1273]
[2]; DNA with 2'-OMe U9, 3' idT [2'-OMe U9, 3' inverted dT38], dPBS Ca/Mg + BSA
  pKd: 8.52

## GGGGCUACTTTATCCGTTCCTCCTAGTGGGTAGCCCC [ARC1270]
[2]; 2'-OMe U at 6, 3' idT [6 (2'-OMe U), 38 (3' inverted dT)], DPBS Mg/Ca, BSA
  pKd: 9.70

## GGGGCUACTTTATCCGTTCCTCCTAGTGGGTAGCCCC [ARC1388]
[2]; 2'-OMe at 1-8,33-37, 3' idT [2'-OMe: 1-8,33-37, 38 = 3' inverted dT], DPBS Mg/Ca, BSA
  pKd: 8.36

## GGGGCUACTTTATCCGTTCCTCCTAGTGGGUAGCCCC [ARC1303]
[2]; 2'-OMe stem block as printed in Table 18, 3' idT [2'-OMe: stem block (exact positions not given in the material), 38 = 3' inverted dT], DPBS Mg/Ca, BSA
  pKd: 8.89

## GGGGCUACTTUATCCGUUCCTCCTAGTGGGTAGCCCC [ARC1390]
[2]; 2'-OMe at 1-8,11,17,18,20,33-37, 3' idT [2'-OMe: 1-8,11,17,18,20,33-37, 38 = 3' inverted dT], DPBS Mg/Ca, BSA
  pKd: 7.77

## GGGGCUACTTUATCCGUUCCTCCTAGTGGGTAGCCCC [ARC1417]
[2]; DNA with 2'-OMe 1-8,U11,U17,U18,C20,33-37, multiple PS, 3' idT [2'-OMe 1-8, U11, U17, U18, C20, 33-37, PS 9/10, 12/13, 14/15, 21/22, 24/25, 27/28, 30/31 (printed N = PS linkage, left out), 3' inverted dT at 38], dPBS Ca/Mg + BSA
  pKd: 7.57

## GGGGTACCTTTATCCGTTTCTCCTAGTGGGGTGCCCC [DNA clone SEQ 132]
[2]
  pKd: 9.40

## GGGGTATGTTGATCCGTCCCTCCTAGTGGCATGCCCC [DNA clone SEQ 133]
[2]
  pKd: 9.15

## NNAGCCUGGGNGACCCAUNNNGNNGNNGCUN [ARC1787]
[1]; ARC1666 chemistry, 5' 40 kDa branched PEG, 3' idT, IgE-FceR1 on SX38 cells
  pIC50: 8.92

## NNAGCCUGGGNGACCCAUNNNGNNGNNGCUN [ARC1788]
[1]; ARC1666 chemistry, 5' 60 kDa branched PEG, 3' idT, IgE-FceR1 on SX38 cells
  pIC50: 8.92
